Experiment [1] addresses recombinant gp120 JR-FL (HIV-1). Nature of the experiment: ELISA. On the technique in general: In an ELISA, binding on a coated surface is turned into a signal by an enzyme label.
Experiment [2] has as its target Env of pseudovirus HXB2.DG (HIV-1) (UniProt P04578).
Experiment [3] concerns the target Env of pseudovirus 6535.3 (HIV-1).
The target in experiment [4] is Env of pseudovirus SS1196.1 (HIV-1).
Experiment [5] concerns the target Env of pseudovirus MW965.26 (HIV-1).
The target in experiment [6] is Env of pseudovirus Bx08.16 (HIV-1).
Experiment [7] concerns the target Env of pseudovirus BaL.26 (HIV-1).
For experiment [8], the target named is Env of pseudovirus SF162.LS (HIV-1).
In experiment [9] the target is recombinant gp120 MSC5007 (HIV-1). Nature of the experiment: ELISA.
Experiment [10] concerns the target Env of pseudovirus DJ263.8 (HIV-1).
For experiment [11], the target named is recombinant gp120 ZM53M (HIV-1). Nature of the experiment: ELISA.
The target in experiment [12] is recombinant gp120 REJO4541 (HIV-1). As to the kind of experiment: ELISA.
For experiment [13], the target named is fusion protein V1V2_(Case-A2)-gp70 (HIV-1). As to the kind of experiment: ELISA.

A value given as a limit tells only on which side of the number the result lay.

Eight molecules from paper PMC3572902 can be followed below.

As to human anti-V2 monoclonal antibody 697, the O.D. (ELISA, mAb at 10 μg/ml) in [1] came out at 4 O.D.

In [2], human anti-V2 monoclonal antibody 830A came in with an IC50 of neutralisation of pseudovirus HXB2.DG (TZM-bl cell assay) of more than 50 mg/L. For the same molecule, the IC50 of neutralisation of pseudovirus 6535.3 (TZM-bl cell assay) in [3] was more than 50 mg/L. The molecule further yielded an IC50 of neutralisation of pseudovirus SS1196.1 (TZM-bl cell assay) in experiment [4] of more than 50 mg/L. The same molecule registered an IC50 of neutralisation of pseudovirus MW965.26 (TZM-bl cell assay) in experiment [5] of less than 0.4 mg/L. The same molecule yielded an IC50 of neutralisation of pseudovirus Bx08.16 (TZM-bl cell assay) in experiment [6] of more than 50 mg/L. Moreover, in experiment [7], the IC50 of neutralisation of pseudovirus BaL.26 (TZM-bl cell assay) amounted to 36.1 mg/L. The molecule also returned an IC50 of neutralisation of pseudovirus SF162.LS (TZM-bl cell assay) in experiment [8] of 6.2 mg/L. Further, the O.D. (ELISA, mAb at 10 μg/ml) in experiment [9] amounted to 4 O.D.

Take human anti-V2 monoclonal antibody 1357: the IC50 of neutralisation of pseudovirus HXB2.DG (TZM-bl cell assay) in experiment [2] is 36.9 mg/L. This molecule also returned an IC50 of neutralisation of pseudovirus DJ263.8 (TZM-bl cell assay) in experiment [10] of 29.2 mg/L. Further, the IC50 of neutralisation of pseudovirus MW965.26 (TZM-bl cell assay) in [5] was determined as 0.8 mg/L. The molecule also yielded an IC50 of neutralisation of pseudovirus SF162.LS (TZM-bl cell assay) in experiment [8] of 33.5 mg/L. Besides, the O.D. (ELISA, mAb at 10 μg/ml) in experiment [1] worked out at 4 O.D.

Take human anti-V2 monoclonal antibody 1361: the IC50 of neutralisation of pseudovirus HXB2.DG (TZM-bl cell assay) in experiment [2] was found to be 18.6 mg/L. Moreover, the IC50 of neutralisation of pseudovirus DJ263.8 (TZM-bl cell assay) in experiment [10] amounted to 11.8 mg/L. In [4], this molecule showed an IC50 of neutralisation of pseudovirus SS1196.1 (TZM-bl cell assay) of 23.8 mg/L. This molecule returned an IC50 of neutralisation of pseudovirus MW965.26 (TZM-bl cell assay) in experiment [5] of less than 0.4 mg/L. This molecule came in with an IC50 of neutralisation of pseudovirus SF162.LS (TZM-bl cell assay) in [8] of 5.4 mg/L. Besides, the O.D. (ELISA, mAb at 10 μg/ml) in experiment [11] turned out to be 4 O.D.

human anti-V2 monoclonal antibody 1393A registered an IC50 of neutralisation of pseudovirus HXB2.DG (TZM-bl cell assay) in [2] of 19.8 mg/L. The same molecule displayed an IC50 of neutralisation of pseudovirus DJ263.8 (TZM-bl cell assay) in experiment [10] of 11.1 mg/L. This molecule also registered an IC50 of neutralisation of pseudovirus SS1196.1 (TZM-bl cell assay) in [4] of 88.7 mg/L. This molecule yielded an IC50 of neutralisation of pseudovirus MW965.26 (TZM-bl cell assay) in [5] of 0.8 mg/L. In experiment [8], the IC50 of neutralisation of pseudovirus SF162.LS (TZM-bl cell assay) turned out to be 12.5 mg/L. In experiment [1], the O.D. (ELISA, mAb at 10 μg/ml) is 4 O.D.

As to human anti-V2 monoclonal antibody 2158, the IC50 of neutralisation of pseudovirus HXB2.DG (TZM-bl cell assay) in experiment [2] came out at 17.8 mg/L. The IC50 of neutralisation of pseudovirus SS1196.1 (TZM-bl cell assay) in experiment [4] was 27.6 mg/L. For the same molecule, the IC50 of neutralisation of pseudovirus MW965.26 (TZM-bl cell assay) in experiment [5] was determined as 0.8 mg/L. The IC50 of neutralisation of pseudovirus SF162.LS (TZM-bl cell assay) in experiment [8] came to 6.4 mg/L.

With human anti-V2 monoclonal antibody 2297, in [12], the O.D. (ELISA, mAb at 10 μg/ml) is 4 O.D. Besides, the percent inhibition of the binding of biotinylated 697 to V1V2-gp70 in [13] was found to be 47%.

B1: human anti-V2 monoclonal antibody 697 (antibody, V domains shown)
VH: QVQLVQSGAEVKKPGSSVKVSCKASGGNFNTYTISWVRQAPGQGLEWMGRIIPIFGIVNPAQKFPGRVTINVDKSTNTAYMELSSLRSEDTAVYYCATSGVGLHFGYFDYWGQGTQVTVSS
VL: QSVLTQPPSVSGAPGQRVTISCTGSSSNIGAHYDVHWYQQLPGTAPKLLIYGNSNRPSGVPDRFSGSKSGTSASLAITGLQAEDEADYYCQSYDSSLSGYVFGTGTKVTVL
In turn, B1 came in with an IC50 of neutralisation of pseudovirus DJ263.8 (TZM-bl cell assay) in experiment [10] of 38.6 mg/L. The molecule further registered an IC50 of neutralisation of pseudovirus SS1196.1 (TZM-bl cell assay) in experiment [4] of 16.8 mg/L. The molecule also came in with an IC50 of neutralisation of pseudovirus MW965.26 (TZM-bl cell assay) in [5] of 1.8 mg/L. For the same molecule, the IC50 of neutralisation of pseudovirus Bx08.16 (TZM-bl cell assay) in experiment [6] amounted to 11.2 mg/L. Besides, the IC50 of neutralisation of pseudovirus BaL.26 (TZM-bl cell assay) in experiment [7] stood at 20.2 mg/L. Further, the IC50 of neutralisation of pseudovirus SF162.LS (TZM-bl cell assay) in experiment [8] turned out to be 19.9 mg/L.
